Assay results taken from patent US20030185792A1, “Morphogen analogs of bone morphogenic proteins” (Curis, Inc., priority 1996, published 2003).
Bridge positions count the residues as written; N and C are the ends. Ends that are not written are not given here.

Tests used:
[1] = target: OP-1 receptor of ROS cells (OP-1 receptor-enriched plasma membrane fraction of ROS cells) (rat)
[2] = target: OP-1 receptor of ROS cells (OP-1 receptor-enriched plasma membrane fraction of ROS cells) (rat); test: radioligand receptor assay, ROS cell plasma membranes
[3] = target: OP-1 receptor of ROS cells (OP-1 receptor-enriched plasma membrane fraction of ROS cells) (rat); remark: listed apart in the source
[4] = target: OP-1 receptor of ROS cells (OP-1 receptor-enriched plasma membrane fraction of ROS cells) (rat); remark: listed apart in the source
[5] = target: OP-1 receptor of ROS cells (OP-1 receptor-enriched plasma membrane fraction of ROS cells) (rat); remark: listed apart in the source
[6] = target: OP-1 receptor of ROS cells (OP-1 receptor-enriched plasma membrane fraction of ROS cells) (rat); test: displacement of ^125I-soluble OP-1 from ROS cell plasma membranes
[7] = target: OP-1 receptor of ROS cells (OP-1 receptor-enriched plasma membrane fraction of ROS cells) (rat); remark: listed apart in the source
[8] = target: OP-1 receptor of ROS cells (OP-1 receptor-enriched plasma membrane fraction of ROS cells) (rat); remark: listed apart in the source

CFRDLGWQDWIIAPC (disulfide 1-15) [Peptide F1-2] showed an IC50 (peptide concentration giving 50% inhibition of the cell response to OP-1), ROS cell alkaline phosphatase [1] of 10 µM and a concentration required to inhibit the binding of ^125I-labeled OP-1 [2] of 179 µM.

B1: Peptide H-C2 (peptide)
peptide: CCFINPETVCC
modifications: disulfide (positions not given here); not fully specified (bridges); also: double disulfide bonds, pairing of the four Cys not given here
Binder B1 has an IC50 (peptide concentration giving 50% inhibition of cellular responsiveness to OP-1), ROS cell alkaline phosphatase [3] of 5 µM and a concentration at which the binding of ^125I-labeled OP-1 to the receptor was potentiated [2] of 8 µM.

With CLNAISVLYFDDSSNVILKKYRNMVVRC (disulfide 1-28 (inferred)) [Peptide F2-1] the IC50 (peptide concentration inhibiting the OP-1 induced cell response by 50%), ROS cell alkaline phosphatase [4] was 8 µM.

In the case of CYFDDSSNVICKKYRS (disulfide 1-11) [Peptide F2-3], the alkaline phosphatase activity of ROS cells, increase relative to soluble OP-1 alone [5] is reported as 20%, the ED50 [6] is reported as 5 µM and the OP-1 induced cellular alkaline phosphatase activity of ROS cells, % increase in OP-1 response relative to the absence of peptide [7] is reported as 53%. The ED50 [2] was 10 µM.

CYFDDSSNVIC (disulfide 1-11) [Peptide F2-2] showed an OP-1 induced cellular alkaline phosphatase activity of ROS cells, potentiation [8] of 20%, an alkaline phosphatase activity of ROS cells, increase relative to soluble OP-1 alone [5] of 20% and an ED50 [6] of 1 µM. The ED50 [2] was 1 µM.
